Test results reported in paper PMC8816947.

Experiments:
[1] = target: BG505.MD39 native-like trimer (stabilized HIV Env gp140 ectodomain), sequence optimized, recombinant (HIV-1 (isolate BG505)); test: native gel or EMSA
[2] = target: BG505.MD39 native-like trimer (stabilized HIV Env gp140 ectodomain), sequence optimized, recombinant (HIV-1 (isolate BG505)); test: negative-stain EM
[3] = target: BG505.MD39 native-like trimer (stabilized HIV Env gp140 ectodomain), sequence optimized, recombinant (HIV-1 (isolate BG505)); test: SEC-MALS
[4] = target: BG505.MD39 native-like trimer (stabilized HIV Env gp140 ectodomain), sequence optimized, recombinant (HIV-1 (isolate BG505)); test: SEC
[5] = target: in vivo produced BG505.MD39 (DNA-encoded, pMD39_opt, in mouse muscle) (HIV-1 (isolate BG505)); test: native gel or EMSA

“BG505.MD39 native-like trimer (stabilized HIV Env gp140 ectodomain), sequence optimized, recombinant (complex)” showed a stoichiometry N [1] of 3, a stoichiometry N [2] of 3 and a stoichiometry N [3] of 3. It also gave a stoichiometry N [4] of 3.
“in vivo produced BG505.MD39 (DNA-encoded, pMD39_opt, in mouse muscle) (complex)” gave a stoichiometry N [5] of 3.
